# In paper PMC5738090, “Functional implications of hexameric assembly of RraA proteins from Vibrio vulnificus” (PLoS ONE, 2017):
# B1: E. coli RraA (natural protein)
# chain: MKYDTSELCDIYQEDVNVVEPLFSNFGGRASFGGQIITVKCFEDNGLLYDLLEQNGRGRVLVVDGGGSVRRALVDAELARLAVQNEWEGLVIYGAVRQVDDLEELDIGIQAMAAIPVGAAGEGIGESDVRVNFGGVTFFSGDHLYADNTGIILSEDPLDIE
# notes: RraA, regulator of ribonuclease activity A, Escherichia coli; the construct is not described here; Hexamer by SEC-MALS (87.05 kDa); also called EcRraA
# Columns and labels:
# Assay in all cases: SEC-MALS; Superdex 200 Increase 5/150 GL; proteins at 3 mg/ml; 20 mM Tris-HCl pH 8.0, 300 mM NaCl, 5% glycerol, 2 mM 2-mercaptoethanol
# [1] = molecular target: VvRraA1 (RraA ortholog 1 of Vibrio vulnificus), hexahistidine-tagged (Vibrio vulnificus MO6-24/O)
# [2] = molecular target: VvRraA2 (RraA ortholog 2 of Vibrio vulnificus), hexahistidine-tagged (Vibrio vulnificus MO6-24/O)
# [3] = molecular target: the molecule itself
molecule,measurement,setting,value
"VvRraA1 (RraA ortholog 1 of Vibrio vulnificus), hexahistidine-tagged (natural protein)",stoichiometry N,[1],6
"VvRraA2 (RraA ortholog 2 of Vibrio vulnificus), hexahistidine-tagged (natural protein)",stoichiometry N,[2],3
B1,stoichiometry N,[3],6
